Reference: paper PMC3258154

Biological target: eIF3 from HeLa cells (human (endogenous in HeLa)) (UniProt Q14152)
Assay: native gel or EMSA

concentration below which the complex starts to dissociate: 200 to 300 nM
Substance: eIF2 from HeLa cells (from UniProt P05198 1-315; P20042 1-333) (complex)
